According to article PMC9896810, “Crk proteins activate the Rap1 guanine nucleotide exchange factor C3G by segregated adaptor-dependent and -independent mechanisms” (Cell Communication and Signaling : CCS, 2023):

Assays:
[1] = target: T1, Src-phosphorylated C3G-AAPA (human, UniProt Q13905-1 4-1077, P283A | P284A | L286 | P287 | P289A | P453A | P454A | L456A | P457A | K459A | …, phosphotyrosines from phosphorylation in vitro with Src (sites not given)); assay: ITC; single-PRM mutant of C3G in the cell titrated with CrkL or CrkL-SH3N, 25 °C, 300 mM NaCl, pH 7.5; SEDPHAT, 1:1 heteroassociation model; N is the competent fraction of C3G; settings: both partners purified
T1 construct: human C3G isoform a, residues 4-1077; only P3 kept, P1, P2 and P4 mutated to Ala; also called pC3G-AAPA; source: E. coli BL21 (DE3), purified; phosphorylated in vitro with the recombinant kinase domain of Src, then SEC; not shown: His, N-terminal, cleaved; Halo, N-terminal, cleaved
T1 sequence (looked up): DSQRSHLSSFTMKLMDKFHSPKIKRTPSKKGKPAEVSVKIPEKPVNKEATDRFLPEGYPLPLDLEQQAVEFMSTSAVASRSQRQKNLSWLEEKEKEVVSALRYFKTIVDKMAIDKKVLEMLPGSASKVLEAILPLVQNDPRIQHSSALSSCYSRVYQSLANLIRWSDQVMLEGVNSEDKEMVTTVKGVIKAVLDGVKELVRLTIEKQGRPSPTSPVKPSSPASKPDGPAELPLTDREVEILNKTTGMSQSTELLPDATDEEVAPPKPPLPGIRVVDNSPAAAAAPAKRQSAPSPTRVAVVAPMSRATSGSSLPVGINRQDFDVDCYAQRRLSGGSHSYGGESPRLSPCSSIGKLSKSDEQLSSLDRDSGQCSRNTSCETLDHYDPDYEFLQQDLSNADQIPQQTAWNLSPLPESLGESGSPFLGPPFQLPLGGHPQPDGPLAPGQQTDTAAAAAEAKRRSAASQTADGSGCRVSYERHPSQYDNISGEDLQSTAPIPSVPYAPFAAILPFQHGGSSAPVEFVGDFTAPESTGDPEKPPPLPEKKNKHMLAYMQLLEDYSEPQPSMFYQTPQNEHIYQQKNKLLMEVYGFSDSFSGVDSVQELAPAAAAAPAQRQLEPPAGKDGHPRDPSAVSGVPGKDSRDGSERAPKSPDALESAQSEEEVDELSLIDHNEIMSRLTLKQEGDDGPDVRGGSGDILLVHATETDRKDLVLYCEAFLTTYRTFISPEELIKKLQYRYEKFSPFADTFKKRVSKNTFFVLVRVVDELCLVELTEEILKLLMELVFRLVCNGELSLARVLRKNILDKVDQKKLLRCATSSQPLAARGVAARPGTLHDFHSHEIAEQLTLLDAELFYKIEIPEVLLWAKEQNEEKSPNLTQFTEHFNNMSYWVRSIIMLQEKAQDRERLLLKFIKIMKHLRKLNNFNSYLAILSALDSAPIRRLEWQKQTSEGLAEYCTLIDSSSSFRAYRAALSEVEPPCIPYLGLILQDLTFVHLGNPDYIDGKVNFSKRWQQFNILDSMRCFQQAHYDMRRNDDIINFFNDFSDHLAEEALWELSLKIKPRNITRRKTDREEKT

[2] = target: T2, Src-phosphorylated C3G-AAAP (human, UniProt Q13905-1 4-1077, P283A | P284A | L286 | P287 | P289A | P453A | P454A | L456A | P457A | K459A | …, phosphotyrosines from phosphorylation in vitro with Src (sites not given)); assay: as above; settings: both partners purified
T2 construct: human C3G isoform a, residues 4-1077; only P4 kept, P1, P2 and P3 mutated to Ala; also called pC3G-AAAP; source: E. coli BL21 (DE3), purified; phosphorylated in vitro with the recombinant kinase domain of Src, then SEC; not shown: His, N-terminal, cleaved; Halo, N-terminal, cleaved
T2 sequence (looked up): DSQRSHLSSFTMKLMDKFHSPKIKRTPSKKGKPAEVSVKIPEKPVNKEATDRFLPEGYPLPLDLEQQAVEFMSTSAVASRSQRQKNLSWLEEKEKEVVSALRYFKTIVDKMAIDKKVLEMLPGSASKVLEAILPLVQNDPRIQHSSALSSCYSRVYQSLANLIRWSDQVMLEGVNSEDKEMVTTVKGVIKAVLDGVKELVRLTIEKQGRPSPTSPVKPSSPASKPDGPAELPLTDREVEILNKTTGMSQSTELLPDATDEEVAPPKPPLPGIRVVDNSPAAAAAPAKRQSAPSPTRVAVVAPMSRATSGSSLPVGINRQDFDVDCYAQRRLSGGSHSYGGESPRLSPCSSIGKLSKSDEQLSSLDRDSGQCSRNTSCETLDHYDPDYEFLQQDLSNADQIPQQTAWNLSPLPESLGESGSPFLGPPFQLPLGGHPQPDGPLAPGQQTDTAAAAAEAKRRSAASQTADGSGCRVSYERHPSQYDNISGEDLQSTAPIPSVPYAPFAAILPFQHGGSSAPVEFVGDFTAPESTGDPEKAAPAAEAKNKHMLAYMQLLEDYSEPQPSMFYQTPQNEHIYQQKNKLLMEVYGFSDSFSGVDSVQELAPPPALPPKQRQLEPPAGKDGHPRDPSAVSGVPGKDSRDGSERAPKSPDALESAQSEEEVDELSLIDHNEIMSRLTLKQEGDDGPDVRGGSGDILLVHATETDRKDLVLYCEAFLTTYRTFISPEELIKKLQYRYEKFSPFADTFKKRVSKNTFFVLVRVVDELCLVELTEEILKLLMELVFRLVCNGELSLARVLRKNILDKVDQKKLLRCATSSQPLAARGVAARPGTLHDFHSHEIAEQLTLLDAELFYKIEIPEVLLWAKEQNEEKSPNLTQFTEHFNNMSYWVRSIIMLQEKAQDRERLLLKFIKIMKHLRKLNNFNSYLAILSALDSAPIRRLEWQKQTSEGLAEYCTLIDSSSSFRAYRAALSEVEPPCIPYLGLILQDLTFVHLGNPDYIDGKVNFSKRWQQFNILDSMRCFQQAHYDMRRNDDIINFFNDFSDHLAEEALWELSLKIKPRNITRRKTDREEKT

Kd [1]: 2.1 µM
stoichiometry N [1]: 0.08
Kd [2]: 2.4 µM
stoichiometry N [2]: 0.74
B1: CrkL-SH3N (domain or fragment, human, UniProt P46109 125-182, looked up)
chain: LEYVRTLYDFPGNDAEDLPFKKGEILVIIEKPEEQWWSARNKDGRVGMIPVPYVEKLV
notes: human CrkL, SH3N domain, residues 125-182, in pETEV15b; source: E. coli BL21 (DE3), purified (IMAC, TEV digestion, SEC); not shown: His, N-terminal, cleaved
